Data reported in the DeepSol protein solubility set.

test: soluble on expression in E. coli; label from the status in PepcDB or PDB records

Soluble on expression in E. coli, soluble:
MEKQWWKESVVYQIYPRSFMDSNGDGIGDLRGIISKLDYLKELGIDVIWLSPVYESPNDDNGYDISDYCKIMNEFGTMEDWDELLHEMHERNMKLMMDLVVNHTSDEHNWFIESRKSKDNKYRDYYIWRPGKEGKEPNNWGAAFSGSAWQYDEMTDEYYLHLFSKKQPDLNWDNEKVRQDVYEMMKFWLEKGIDGFRMDVINFISKEEGLPTVETEEEGYVSGHKHFMNGPNIHKYLHEMNEEVLSHYDIMTVGEMPGVTTEEAKLYTGEERKELQMVFQFEHMDLDSGEGGKWDVKPCSLLTLKENLTKWQKALEHTGWNSLYWNNHDQPRVVSRFGNDGMYRIESAKMLATVLHMMKGTPYIYQGEEIGMTNVRFESIDEYRDIETLNMYKEKVMERGEDIEKVMQSIYIKGRDNARTPMQWDDQNHAGFTTGEPWITVNPNYKEINVKQAIQNKDSIFYYYKKLIELRKNNEIVVYGSYDLILENNPSIFAYVRTYGVEKLLVIANFTAEECIFELPEDISYSEVELLIHNYDVENGPIENITLRPYEAMVFKLK

Soluble on expression in E. coli, not soluble:
MSLYSDSVTHCLQTCNSPYQKSEKDHRRLSLFAARLFLYNLALFNQFDISMTQSIWRSVTPQFEQFNKVFENYPNLAPISLIEIQPRLTSALEQFVHLKGFSRILLINAPDNSIYRSLFKDALLEQDLDVPVVSTETLDISEILGQVKVEHGGLVHKTSGYLEQANGGYLIVSANLLLANPRYWPTVKAAVLGETVSPINCDPKSPLPNRLGSSYDVKLIVVGDRTQLGDLDFLDADIHSGLCLFSELELDLKIEEETIEDYLGYLRWLCEQYNLPSLTCSAIQSLMTAGARYTEDQYYAPLCLMWHRALLEEARLESEEPLIDAEHIEIALDKRYLRESYLPERALDDILDGQVIIETQGEQVGQVNGLTVIEVTGHPMPYGEPARISCVIHFGDGDIADVERKVELGGNLHAKGMMIMQAFVSSALNLDGSLPFSASIVFEQSYSEVDGDSASLAELCSLVSALSEYPIDQQIAVTGAVDQFGRVQAVGGLNEKIEGFYRVCCHQGLTGEQGVILPSSNLKHLALHKSVVESIKNGEFNIWPVSTVDEAIPLLMGKPFRGEDEGHHHHHH
MAHHHHHHMEPFTWLPAERYFHPLLNSIGAYQRYTYSLRAVCDAQRQKLLPGGDIEQNPGPIAVLQMNVSCLTPSKLATLMAQGADIIAIQETWKSSEQIASMHTGDHVLHAQSRIGKGSGVAVLVRKTLRSKRVPLTIPQHDTSLEVVVVQVALDQNRDLIVASTYMRPPPQVTQSFRRLVNCLPASSPLLLCGDFNMHHPQWEPFLESSPSEVAAEFLELCTDAGLTLVNTPGDITYARGTRERSCIDLTWSKHLTVSDCSASVSPLSDHYMLTFTLHQAFMDTIPSAPPSAPRTFYS
MAHHHHHHMAPQSPSEWDNARRAAKRALTISDEYPPATVERIQKLLQRAETTSNDAVLLSELKSLVQSYFQSPQSLQFLRKERVASKGGGIGVVAARKIPAFSIIGVYPGYLDFMSGEQAKCGRPVPKYALMEYNCANYFNEVFVELQTTFTPFINEPNVDEKSNCAWIQEPHRKNGRLSVICVRDIQEGEELTIGYGPIYPRTYPYCYDAYACHQIEGHTTHPCYSLWHWPTLQEADARFVCHIGYIERDDCYVLWKNET
TLTDTMNDLAVRMAESFQAEEVGFFHIDHFENLTLLPGSTAFFKEAKPSDFYNELKEKLYEGEKGVFIGNGQSVFGKAGYGSLMAAPMIQNDRLLGFAVLLKQELYAFTFEMYKLFQALIHHATLAVTNSMLRDRLEHLVKTDQL
MGSDKIHHHHHHMVLSKFMPHNPKFAAKFAEAAQNAHATAQALVDLLENYTDVERKVQRVLDFEHEGDRITSEVTNLLAESFIVPFDREDILALNAELDDLVDDMEEAASKLSLYRIERPLPQMAQLARVVEQQCALLAQGMPLIEDGRMVDELRQLSQKIRALEDEGDRISDEVARHLYDGVTEVPQMIVAMRSGEILNLIENASDQAQRIARTVESILLKNA
MGSDKIHHHHHHMLTRQRPLHGIGTTQAAVLKHLRRNGIASRAELAELCGVTQAAVSMMTRDLIARGIVIQGARRQSQRGAPHIDLMLAGNIGYALGVHANSYSLTVTLLDFCGNRIGEQQLEGPYDRFSDIQTAIKSLRTDLLTSNGIDEGLLIGAAVAMPTRFRHGTAFLDLAEEVVSWAGSDLASTLRETLDCPVMIENDANAAAMGELALGNASGHDNFAYLYLSEGIGSGIIIGKELYRGNLGNAGEVGALRARGLSRPSFDDLAAWCKEHQGHIPKGRSSDQWTAYLQANPTVLDAWLRRAGPELATLAFMVTAVLAPSAIYIGGTLPRLVREKLAPWLDFSTSNPFDGARVIQPDILIPQISAVDAVAFGAAAMILHSVPGNPGL
